Experimental data: publication PMC8696220 (Cancer Communications, 2021)

B1: GST-fused N-terminal (1-492) domain of PCAF (domain or fragment)
chain: MSEAGGAGPGGCGAGAGAGAGPGALPPQPAALPPAPPQGSPCAAAAGGSGACGPATAVAAAGTAEGPGGGGSARIAVKKAQLRSAPRAKKLEKLGVYSACKAEESCKCNGWKNPNPSPTPPRADLQQIIVSLTESCRSCSHALAAHVSHLENVSEEEMNRLLGIVLDVEYLFTCVHKEEDADTKQVYFYLFKLLRKSILQRGKPVVEGSLEKKPPFEKPSIEQGVNNFVQYKFSHLPAKERQTIVELAKMFLNRINYWHLEAPSQRRLRSPNDDISGYKENYTRWLCYCNVPQFCDSLPRYETTQVFGRTLLRSVFTVMRRQLLEQARQEKDKLPLEKRTLILTHFPKFLSMLEEEVYSQNSPIWDQDFLSASSRTSQLGIQTVINPPPVAGTISYNSTSSSLEQPNAGSSSPACKASSGLEANPGEKRKMTDSHVLEEAKKPRVMGDIPMELINEVMSTITDPAAMLGPETNFLSAHSARDEAARLEERRG
B2: GST-PCAF (enzyme)
chain: MSEAGGAGPGGCGAGAGAGAGPGALPPQPAALPPAPPQGSPCAAAAGGSGACGPATAVAAAGTAEGPGGGGSARIAVKKAQLRSAPRAKKLEKLGVYSACKAEESCKCNGWKNPNPSPTPPRADLQQIIVSLTESCRSCSHALAAHVSHLENVSEEEMNRLLGIVLDVEYLFTCVHKEEDADTKQVYFYLFKLLRKSILQRGKPVVEGSLEKKPPFEKPSIEQGVNNFVQYKFSHLPAKERQTIVELAKMFLNRINYWHLEAPSQRRLRSPNDDISGYKENYTRWLCYCNVPQFCDSLPRYETTQVFGRTLLRSVFTVMRRQLLEQARQEKDKLPLEKRTLILTHFPKFLSMLEEEVYSQNSPIWDQDFLSASSRTSQLGIQTVINPPPVAGTISYNSTSSSLEQPNAGSSSPACKASSGLEANPGEKRKMTDSHVLEEAKKPRVMGDIPMELINEVMSTITDPAAMLGPETNFLSAHSARDEAARLEERRGVIEFHVVGNSLNQKPNKKILMWLVGLQNVFSHQLPRMPKEYITRLVFDPKHKTLALIKDGRVIGGICFRMFPSQGFTEIVFCAVTSNEQVKGYGTHLMNHLKEYHIKHDILNFLTYADEYAIGYFKKQGFSKEIKIPKTKYVGYIKDYEGATLMGCELNPRIPYTEFSVIIKKQKEIIKKLIERKQAQIRKVYPGLSCFKDGVRQIPIESIPGIRETGWKPSGKEKSKEPRDPDQLYSTLKSILQQVKSHQSAWPFMEPVKRTEAPGYYEVIRFPMDLKTMSERLKNRYYVSKKLFMADLQRVFTNCKEYNPPESEYYKCANILEKFFFSKIKEAGLIDK
B3: His-PCAF (enzyme)
chain: B2 chain
B4: GST-fused C-terminal BROMO (659-832) domain of PCAF (domain or fragment)
chain: FSVIIKKQKEIIKKLIERKQAQIRKVYPGLSCFKDGVRQIPIESIPGIRETGWKPSGKEKSKEPRDPDQLYSTLKSILQQVKSHQSAWPFMEPVKRTEAPGYYEVIRFPMDLKTMSERLKNRYYVSKKLFMADLQRVFTNCKEYNPPESEYYKCANILEKFFFSKIKEAGLIDK

Experiments:
His-Fascin = His-Fascin (human, UniProt Q16658 1-493); assay: pull-down
GST-Fascin = GST-Fascin (human, UniProt Q16658 1-493); assay: pull-down

Binder	binding result (His-Fascin)	binding result (GST-Fascin)
B1	binds	
B2	binds	
B3		binds
B4	binds	
